# Measured values as given in patent US20130089513A1 (MEDEXGEN, published 2013).
# Where a chain is given by its changes, count along the chain named. Numbers in names are those of the source.
# T1: G-CSF receptor linked to Fc domain of human IgG (human, UniProt Q99062 25-627, limits assumed)
# T1 sequence (looked up): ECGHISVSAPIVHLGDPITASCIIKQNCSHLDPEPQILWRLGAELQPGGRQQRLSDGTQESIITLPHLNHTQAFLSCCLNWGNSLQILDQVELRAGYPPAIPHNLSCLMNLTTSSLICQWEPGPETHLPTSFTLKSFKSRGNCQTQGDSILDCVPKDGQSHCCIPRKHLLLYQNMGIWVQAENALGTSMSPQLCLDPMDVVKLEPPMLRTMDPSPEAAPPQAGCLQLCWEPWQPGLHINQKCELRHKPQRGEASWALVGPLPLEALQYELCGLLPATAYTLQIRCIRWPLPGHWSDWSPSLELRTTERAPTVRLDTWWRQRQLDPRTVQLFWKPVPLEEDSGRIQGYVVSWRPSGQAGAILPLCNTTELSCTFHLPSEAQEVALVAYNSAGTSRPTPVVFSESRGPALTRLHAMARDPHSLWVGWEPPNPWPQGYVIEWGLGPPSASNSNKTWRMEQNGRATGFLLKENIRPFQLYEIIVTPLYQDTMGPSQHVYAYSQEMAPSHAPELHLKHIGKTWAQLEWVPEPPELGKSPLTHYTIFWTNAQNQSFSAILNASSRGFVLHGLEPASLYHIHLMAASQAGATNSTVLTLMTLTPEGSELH
# B1: wild type G-CSF (ligand)
# chain: TPLGPASSLPQSFLLKCLEQVRKIQGDGAALQEKLCATYKLCHPEELVLLGHSLGIPWAPLSSCPSQALQLAGCLSQLHSGLFLYQGLLQALEGISPELGPTLDTLQLDVADFATTIWQQMEELGMAPALQPTQGAMPAFASAFQRRAGGVLVASHLQSFLEVSYRVLRHLAQP
# notes: cDNA from leukocytes of healthy people; expressed in CHO-K1 cells; also called G-CSF wild type
# B2: G-CSF-[F140V] (ligand)
# chain: B1 chain with F140V
# notes: G-CSF mutein expressed in CHO-K1 cells; also called G-CSF-[F140VD]
# B3: G-CSF F113V (ligand)
# cytokine chain: B1 chain with F113V
# notes: used as CHO-K1 culture supernatant
# B4: G-CSF-[F160V] (ligand)
# chain: B1 chain with F160V
# notes: G-CSF mutein expressed in CHO-K1 cells
# B5: G-CSF F13V (ligand)
# cytokine chain: B1 chain with F13V
# notes: as for B3
# Biological target: T1, G-CSF receptor linked to Fc domain of …
# Experiment: ELISA on coated G-CSF receptor-Fc, done like the TPO ELISA
row,EC50 (read off the curve) [µg/mL],Binder
1,~0.04,B1
2,~0.06,B2
3,~0.06,B3
4,~0.04,B4
5,~0.03,B5
